This is an account of results in patent EP1132405A1 (Takeda Chemical Industries, Ltd., dated 2001).

Ends that are not written are not given here.

This assay has as its target rat cerebellum-derived G protein-coupled receptor protein rOT7T022L (rat, UniProt Q9EP86 1-432). In words: cell-based or functional assay.

Sequence of rat cerebellum-derived G protein-coupled receptor protein rOT7T022L (Q9EP86 whole entry, form in doubt): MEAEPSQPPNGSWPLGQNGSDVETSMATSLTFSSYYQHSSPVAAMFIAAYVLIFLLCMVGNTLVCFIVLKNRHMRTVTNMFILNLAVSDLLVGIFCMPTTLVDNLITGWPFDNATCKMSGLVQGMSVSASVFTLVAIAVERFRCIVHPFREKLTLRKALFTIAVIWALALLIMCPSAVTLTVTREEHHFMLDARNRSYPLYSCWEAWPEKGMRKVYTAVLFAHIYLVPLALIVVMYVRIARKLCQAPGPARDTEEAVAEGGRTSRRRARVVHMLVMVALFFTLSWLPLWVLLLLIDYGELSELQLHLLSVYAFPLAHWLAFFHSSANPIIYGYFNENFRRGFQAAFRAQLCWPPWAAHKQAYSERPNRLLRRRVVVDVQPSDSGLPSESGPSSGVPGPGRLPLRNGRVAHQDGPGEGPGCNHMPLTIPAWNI

Take MPHSFANLPLRF-NH2 [peptide MPHSFANLPLRFamide (Met-Pro-His-Ser-Phe-Ala-Asn-Leu-Pro-Leu-Arg-Phe-NH2)]: the “IC50 of cAMP production suppression (forskolin-stimulated, cAMP EIA)” value was found to be 0.5 nM.
